Source: publication PMC8018780, “Two peptides targeting endothelial receptors are internalized into murine brain endothelial cells” (PLoS ONE, 2021)
Ends that are not written are not given here. Peptide text beside a SMILES is read from it. * marks the point of attachment. 5TAMRA = CN(C)c1ccc2c(c1)Oc1cc(N(C)C)ccc1C21OC(=O)c2cc(C(=O)*)ccc21

Tests used:
bEnd.3 cells = assay: Translocation study based on fluorescence intensity measurement (Transwell, non-contact co-culture with rat astrocytes); format: in vitro ADME, mouse; conditions: for Pe ("real" endothelial permeability): 1/Pe = 1/Papp,bEnd.3+filter − 1/Papp,filter, fluorescence; for Papp,F (apparent permeability through filter): cell-free collagen-coated polyester Transwell filter, 0.4 μm pores, fluorescence Ex 535/Em 585 nm
Method: (§1) For the translocation studies, an in vitro contact and non-contact co-culture model was used. Forty thousand bEnd.3 cells were seeded on the upper side of the collagen-coated Transwell insert and maintained in cDMEM for 24 hours (contact co-culture) or immediately transferred into a 12-well plate in which rat astrocytes were grown for at least three weeks (non-contact co-culture). In the case of contact co-culture, 24 hours after plating the bEnd.3 approx. 150,000 rat astrocytes were seeded on the bottom side of the flipped Transwell inserts, which was coated with 5 μg/ml poly-L-lysine (P1524, Sigma-Aldrich), and incubated for 2 hours at 37°C. The inserts were then flipped back to the original side and placed into a 12-well plate with rat astrocytes. The cells were cultured in cDMEM at 37°C with 5% CO2/95% air and saturated humidity, and the experiments were performed 4.5–5 days post-seeding of bEnd.3 cells. The medium was switched to phenol red-free cDMEM the day before the experiment.
(§2) These experiments were performed using the bEnd.3 cells that were cultured with rat astrocytes in a non-contact co-culture model and with cell-free filters as negative controls. On the day of the experiment, the inserts were transferred to a new astrocyte-free 12-well plate, and the medium was changed on both the apical and basolateral sides. The apical side of the membrane was exposed to 10 μM MTfp or GYR for 2 hours while the plates were gently shaken to overcome unstirred water-layer effects. After the 2 hours exposure time, 150 μL sample was taken from both apical and basolateral compartments, and the fluorescence intensity was read by a CLARIOstar® Plus microplate reader (BMG Labtech) (λExc = 535 nm, λEm = 585 nm, Bandwidth = 20 and 30 nm, respectively). The translocation of the peptides is presented as permeability coefficient (a concentration independent transport parameter) and was determine by using the clearance principle.
(§3) The following equations [27] were used to calculate the permeability coefficient: Papp[cm/s]=B/T⋅vb/A⋅t⋅60 (1) Where Papp is the apparent permeability, B is the relative fluorescence unit (RFU) at time t, T is the top chamber RFU at time 0 (constant), Vb is the volume of the bottom channel [ml], A is the cross-section area of the membrane [cm^2], and t is the time [min].
(§4) The translocation experiments were performed three times in technical triplicates, and the data are represented as mean (SD).

[1] = as above; format: in vitro ADME, mouse; conditions: mouse; bEnd.3 non-contact co-culture with rat astrocytes, polyester Transwell 0.4 μm; 10 μM apical, 2 h, shaken, apical to basolateral; fluorescence (RFU values) Ex 535/Em 585 nm; mean (SD) of three independent experiments with triplicates; read-out: Papp, bEnd.3+F (apparent permeability through bEnd.3 grown on filter)
Method: as §1, §2, §3, §4

[2] = target: T1, LRP-1 purified from human placenta (Homo sapiens, UniProt Q07954); assay: SPR binding to immobilized LRP-1 (Biacore 3000, CM5 chip); conditions: unlabeled peptide, 0.25-4 μM, 5 μL/min, 25°C, HEPES buffer pH 7.4, Langmuir 1:1 global fit
T1 construct: LRP-1 was purified from human placenta according to a previously described protocol; from tissue; host or cells: human placenta
T1 sequence (Q07954 20-4544): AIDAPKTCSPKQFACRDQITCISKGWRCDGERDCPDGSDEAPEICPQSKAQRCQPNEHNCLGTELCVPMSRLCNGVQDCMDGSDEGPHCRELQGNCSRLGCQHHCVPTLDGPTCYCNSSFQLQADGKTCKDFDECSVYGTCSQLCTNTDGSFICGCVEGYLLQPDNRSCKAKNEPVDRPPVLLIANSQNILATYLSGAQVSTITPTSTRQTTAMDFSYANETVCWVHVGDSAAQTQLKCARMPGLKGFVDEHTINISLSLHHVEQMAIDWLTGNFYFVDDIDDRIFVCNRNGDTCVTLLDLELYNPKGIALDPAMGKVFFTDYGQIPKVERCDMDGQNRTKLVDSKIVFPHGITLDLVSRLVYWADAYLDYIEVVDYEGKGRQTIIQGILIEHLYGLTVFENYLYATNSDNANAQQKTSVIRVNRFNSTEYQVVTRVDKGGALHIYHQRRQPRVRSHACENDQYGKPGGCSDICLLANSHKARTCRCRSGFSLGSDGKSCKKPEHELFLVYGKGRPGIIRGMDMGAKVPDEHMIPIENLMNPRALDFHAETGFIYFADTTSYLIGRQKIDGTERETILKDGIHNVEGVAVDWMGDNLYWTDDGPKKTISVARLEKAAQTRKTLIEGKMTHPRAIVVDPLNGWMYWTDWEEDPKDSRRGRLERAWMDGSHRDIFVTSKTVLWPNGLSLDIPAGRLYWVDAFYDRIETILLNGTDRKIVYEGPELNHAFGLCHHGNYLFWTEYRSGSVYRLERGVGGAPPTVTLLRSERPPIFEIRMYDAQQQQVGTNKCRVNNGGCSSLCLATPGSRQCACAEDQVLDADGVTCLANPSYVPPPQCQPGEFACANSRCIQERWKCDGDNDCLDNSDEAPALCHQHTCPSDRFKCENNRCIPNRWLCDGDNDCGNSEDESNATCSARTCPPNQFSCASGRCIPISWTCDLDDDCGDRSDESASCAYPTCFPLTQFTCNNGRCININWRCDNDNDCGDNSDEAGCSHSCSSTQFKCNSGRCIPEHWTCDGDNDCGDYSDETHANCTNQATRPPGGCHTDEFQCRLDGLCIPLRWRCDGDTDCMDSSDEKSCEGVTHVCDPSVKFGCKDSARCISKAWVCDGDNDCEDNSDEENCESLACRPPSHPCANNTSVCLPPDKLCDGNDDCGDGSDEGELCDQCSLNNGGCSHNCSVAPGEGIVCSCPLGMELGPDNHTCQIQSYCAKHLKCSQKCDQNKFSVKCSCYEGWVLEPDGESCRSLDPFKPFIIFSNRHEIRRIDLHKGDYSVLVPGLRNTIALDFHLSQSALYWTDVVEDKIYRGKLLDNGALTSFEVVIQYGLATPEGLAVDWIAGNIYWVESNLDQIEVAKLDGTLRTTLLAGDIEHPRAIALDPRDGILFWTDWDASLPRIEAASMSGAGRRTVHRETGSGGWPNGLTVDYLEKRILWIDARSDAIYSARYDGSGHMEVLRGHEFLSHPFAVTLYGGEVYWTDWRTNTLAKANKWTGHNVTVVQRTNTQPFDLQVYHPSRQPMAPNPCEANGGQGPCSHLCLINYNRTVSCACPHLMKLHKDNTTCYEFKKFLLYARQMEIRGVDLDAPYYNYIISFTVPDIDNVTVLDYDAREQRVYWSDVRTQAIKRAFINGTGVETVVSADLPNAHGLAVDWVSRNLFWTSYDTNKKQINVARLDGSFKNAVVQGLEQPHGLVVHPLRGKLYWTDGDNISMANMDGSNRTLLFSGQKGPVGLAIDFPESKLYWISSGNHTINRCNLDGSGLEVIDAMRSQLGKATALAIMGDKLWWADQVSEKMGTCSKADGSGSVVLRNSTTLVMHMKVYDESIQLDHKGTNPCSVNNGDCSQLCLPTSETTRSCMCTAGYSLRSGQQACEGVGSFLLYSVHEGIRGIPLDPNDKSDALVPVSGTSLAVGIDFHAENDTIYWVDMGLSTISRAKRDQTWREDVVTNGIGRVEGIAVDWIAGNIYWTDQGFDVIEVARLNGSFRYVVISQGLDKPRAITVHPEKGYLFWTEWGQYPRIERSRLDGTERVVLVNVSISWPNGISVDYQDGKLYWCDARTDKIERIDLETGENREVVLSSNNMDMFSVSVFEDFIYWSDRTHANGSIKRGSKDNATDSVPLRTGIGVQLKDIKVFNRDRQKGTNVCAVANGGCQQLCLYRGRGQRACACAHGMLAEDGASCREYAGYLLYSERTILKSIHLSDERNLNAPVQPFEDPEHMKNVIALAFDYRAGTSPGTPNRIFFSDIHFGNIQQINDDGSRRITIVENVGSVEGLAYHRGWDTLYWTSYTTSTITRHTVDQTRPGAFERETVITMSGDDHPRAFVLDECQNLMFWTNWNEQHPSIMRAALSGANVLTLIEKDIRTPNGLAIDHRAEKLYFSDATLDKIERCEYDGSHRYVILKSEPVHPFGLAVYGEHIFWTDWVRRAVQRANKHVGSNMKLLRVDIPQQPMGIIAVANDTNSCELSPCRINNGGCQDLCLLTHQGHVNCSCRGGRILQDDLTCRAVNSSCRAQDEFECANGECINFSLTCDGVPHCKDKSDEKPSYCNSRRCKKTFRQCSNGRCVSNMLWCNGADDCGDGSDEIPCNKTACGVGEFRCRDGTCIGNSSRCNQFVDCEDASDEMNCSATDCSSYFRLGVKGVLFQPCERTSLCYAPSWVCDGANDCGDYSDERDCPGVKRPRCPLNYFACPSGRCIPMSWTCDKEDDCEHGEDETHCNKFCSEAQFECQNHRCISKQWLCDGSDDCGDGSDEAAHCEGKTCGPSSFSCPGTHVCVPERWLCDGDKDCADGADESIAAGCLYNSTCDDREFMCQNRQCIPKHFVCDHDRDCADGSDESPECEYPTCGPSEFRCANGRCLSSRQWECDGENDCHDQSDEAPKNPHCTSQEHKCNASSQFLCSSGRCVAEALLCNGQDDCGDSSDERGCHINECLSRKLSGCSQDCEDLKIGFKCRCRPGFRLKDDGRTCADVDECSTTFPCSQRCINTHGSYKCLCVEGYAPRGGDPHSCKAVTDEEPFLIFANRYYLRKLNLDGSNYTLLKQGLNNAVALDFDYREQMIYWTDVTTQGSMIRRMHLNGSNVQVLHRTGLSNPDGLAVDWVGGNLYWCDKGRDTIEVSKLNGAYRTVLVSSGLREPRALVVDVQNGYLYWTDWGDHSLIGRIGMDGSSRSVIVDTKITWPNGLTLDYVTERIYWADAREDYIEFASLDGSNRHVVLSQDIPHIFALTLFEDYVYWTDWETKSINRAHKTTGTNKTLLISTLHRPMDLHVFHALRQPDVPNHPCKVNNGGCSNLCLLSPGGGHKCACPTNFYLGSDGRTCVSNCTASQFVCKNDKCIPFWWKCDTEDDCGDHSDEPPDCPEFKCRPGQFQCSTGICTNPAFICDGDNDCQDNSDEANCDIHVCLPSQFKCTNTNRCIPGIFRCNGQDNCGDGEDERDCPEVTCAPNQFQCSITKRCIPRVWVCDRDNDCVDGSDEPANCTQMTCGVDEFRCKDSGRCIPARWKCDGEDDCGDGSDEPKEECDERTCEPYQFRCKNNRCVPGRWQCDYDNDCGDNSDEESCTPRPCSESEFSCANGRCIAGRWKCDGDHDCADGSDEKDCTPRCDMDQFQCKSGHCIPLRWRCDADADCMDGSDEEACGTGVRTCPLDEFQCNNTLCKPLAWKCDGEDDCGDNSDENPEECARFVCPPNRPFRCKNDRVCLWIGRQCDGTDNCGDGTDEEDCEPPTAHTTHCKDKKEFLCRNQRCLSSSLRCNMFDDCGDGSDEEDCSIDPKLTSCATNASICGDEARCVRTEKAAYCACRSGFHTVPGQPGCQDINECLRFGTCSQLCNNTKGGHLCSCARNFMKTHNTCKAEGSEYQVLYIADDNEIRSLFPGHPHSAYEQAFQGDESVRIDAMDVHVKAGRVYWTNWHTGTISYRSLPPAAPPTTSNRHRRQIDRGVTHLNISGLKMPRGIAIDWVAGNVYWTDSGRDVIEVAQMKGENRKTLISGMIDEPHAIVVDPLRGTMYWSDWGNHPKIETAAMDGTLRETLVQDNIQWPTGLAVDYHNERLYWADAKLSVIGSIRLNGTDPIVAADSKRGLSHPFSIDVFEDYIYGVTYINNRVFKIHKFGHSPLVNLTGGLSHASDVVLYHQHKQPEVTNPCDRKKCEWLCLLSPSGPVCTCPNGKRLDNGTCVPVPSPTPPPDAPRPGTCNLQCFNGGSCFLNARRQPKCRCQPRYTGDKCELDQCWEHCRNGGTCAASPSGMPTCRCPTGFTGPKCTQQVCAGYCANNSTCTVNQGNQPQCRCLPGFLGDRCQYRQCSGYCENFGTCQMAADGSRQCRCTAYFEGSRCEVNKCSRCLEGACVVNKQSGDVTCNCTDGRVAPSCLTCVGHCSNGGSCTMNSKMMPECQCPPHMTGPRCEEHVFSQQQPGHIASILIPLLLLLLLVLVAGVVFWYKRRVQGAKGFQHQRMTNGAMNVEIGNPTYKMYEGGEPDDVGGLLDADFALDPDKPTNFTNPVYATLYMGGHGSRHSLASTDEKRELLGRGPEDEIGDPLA
Method: (§5) The binding affinity analysis of the MTf and GYR peptides was performed using the Biacore 3000 system (Cytiva, UK) equipped with a CM5 sensor chip. The sensor chip was initially activated by injection of 0.2 M 1-ethyl-3-(3-dimethylaminopropyl) carbodiimide hydrochloride and 0.05 M N-hydroxysuccinimide in water. Recombinant human and mouse TfR protein (SinoBiological, Inc., Beijing, PRC) was purchased with a His-tag and immobilized on the sensor chip at 58 fmol/mm^2. LRP-1 was purified from human placenta according to a previously described protocol and immobilized to densities of 0.025 fmol/mm^2. The remaining carboxylate groups were blocked with 1 M ethanolamine. The MTf and GYR peptides were injected for binding to the immobilized TfR or LRP-1 protein at 5 μL/min at 25°C in 10 mM HEPES, 150 mM NaCl, 1.5 mM CaCl2, 1 mM EGTA, and 0.005% Tween 20 (pH 7.4) at five different concentrations (0.25 μM, 0.5 μM, 1 μM, 2 μM and 4 μM). The reference flow channel (FC1) was activated and blocked but without immobilized TfR or LRP-1. The dissociation constant (KD) values were calculated using the BIAevaluation 4.1 software (Cytiva, UK) using the predefined Langmuir 1:1 interaction model and fitted using a drifting baseline with global fitting to the curves of the considered concentration range.

[3] = target: T2, Recombinant mouse TfR protein (mTfR) (Mus musculus, UniProt Q62351); assay: SPR binding to immobilized mouse TfR (Biacore 3000, CM5 chip); conditions: unlabeled peptide, 0.25-4 μM, 25°C, pH 7.4, Langmuir 1:1 global fit
T2 construct: His-tag; purchased SinoBiological, Inc., Beijing, PRC
Method: as §5

[4] = 10 μM apical, 2 h, mean (SD) of three independent experiments with triplicates
[5] = alternative calculation, 10 μM apical, 120 min
[6] = 10 μM apical, 2 h, shaken, apical to basolateral, mean (SD) of three independent experiments with triplicates

Row | Compound | Pe ("real" endothelial permeability) (bEnd.3 cells; [4]) | Papp,F (apparent permeability through filter) (bEnd.3 cells; [6]) | Kd [2] | other results
1 | CC[C@H](C)[C@H](NC(=O)[C@H](CC(N)=O)NC(=O)[C@H](Cc1c[nH]cn1)NC(=O)[C@@H](NC(=O)[C@@H]1CCCN1C(=O)[C@H](CCCNC(=N)N)NC(=O)[C@H](Cc1ccc(O)cc1)NC(=O)CN)C(C)C)C(=O)N[C@@H](CCCNC(=N)N)C(=O)NCC(=O)N[C@@H](Cc1c[nH]cn1)C(=O)N[C@@H](Cc1c[nH]c2ccccc12)C(=O)N[C@@H](C)C(=O)N1CCC[C@H]1C(=O)NCC(=O)N[C@@H](CCCCNC(=O)c1ccc2c(c1)C(=O)OC21c2ccc(N(C)C)cc2Oc2cc(N(C)C)ccc21)C(N)=O [GYR-TAMRA] (H-GYRPVHNIRGHWAPGK(5TAMRA)-NH2) | 15.17 (1.83) x 10^−6 cm/s | 12.82 (3.11) x 10^−6 cm/s | – | Papp (bEnd.3 + filter), calculated concentrations based on a standard curve (bEnd.3 cells; [5]): 6.71 ×10⁻⁶ cm/s; Papp (bEnd.3 + filter), calculated final basal concentration and the 10 µM initial apical concentration (bEnd.3 cells; [5]): 6.31 ×10⁻⁶ cm/s; Papp, bEnd.3+F (apparent permeability through bEnd.3 grown on filter) (bEnd.3 cells; bEnd.3 non-contact co-culture with rat astrocytes, polyester Transwell 0.4 μm, 10 μM apical, 2 h, shaken, apical to basolateral, fluorescence (RFU values) Ex 535/Em 585 nm, mean (SD) of three independent experiments with triplicates): 6.64 (1.16) x 10^−6 cm/s
2 | CC[C@H](C)[C@H](NC(=O)[C@H](CCCNC(=N)N)NC(=O)[C@@H](NC(=O)[C@@H](NC(=O)[C@H](Cc1ccccc1)NC(=O)[C@@H]1CCCN1C(=O)[C@@H](NC(=O)[C@H](CC(=O)O)NC(=O)CNC(=O)[C@H](CCCNC(=N)N)NC(=O)[C@H](CC(N)=O)NC(=O)[C@H](CCC(=O)O)NC(=O)[C@@H](NC(=O)[C@H](CC(C)C)NC(=O)[C@H](CS)NC(=O)[C@H](CCCNC(=N)N)NC(=O)[C@H](Cc1ccccc1)NC(=O)c1ccc2c(c1)C(=O)OC21c2ccc(N(C)C)cc2Oc2cc(N(C)C)ccc21)C(C)C)C(C)C)C(C)C)[C@@H](C)O)C(=O)N[C@@H](CCCNC(=N)N)C(N)=O [MTfp-TAMRA] (5TAMRA-FRCLVENRGDVPFVTRIR-NH2) | 4.57 (0.64) x 10^−6 cm/s | 5.86 (1.27) x 10^−6 cm/s | – | Papp A→B at 2 h, 10 µM [1]: 2.55 ×10⁻⁶ cm/s
3 | FRCLVENRGDVPFVTRIR-NH2 [MTfp] | – | – | 0.00057 µM | –
4 | GYRPVHNIRGHWAPGK-NH2 [GYR] | – | – | 0.1 µM | Remaining peptide most likely trapped inside the filter membrane or in the endothelial cell layer (bEnd.3 cells; 100% minus collected): 1.7%; Kd [3]: 1000 µM
